Source: PMC11820146

The substances below were run against growth hormone receptor (GHR) (UniProt P10912).
Chain of UniProt P10912 (P10912 19-638): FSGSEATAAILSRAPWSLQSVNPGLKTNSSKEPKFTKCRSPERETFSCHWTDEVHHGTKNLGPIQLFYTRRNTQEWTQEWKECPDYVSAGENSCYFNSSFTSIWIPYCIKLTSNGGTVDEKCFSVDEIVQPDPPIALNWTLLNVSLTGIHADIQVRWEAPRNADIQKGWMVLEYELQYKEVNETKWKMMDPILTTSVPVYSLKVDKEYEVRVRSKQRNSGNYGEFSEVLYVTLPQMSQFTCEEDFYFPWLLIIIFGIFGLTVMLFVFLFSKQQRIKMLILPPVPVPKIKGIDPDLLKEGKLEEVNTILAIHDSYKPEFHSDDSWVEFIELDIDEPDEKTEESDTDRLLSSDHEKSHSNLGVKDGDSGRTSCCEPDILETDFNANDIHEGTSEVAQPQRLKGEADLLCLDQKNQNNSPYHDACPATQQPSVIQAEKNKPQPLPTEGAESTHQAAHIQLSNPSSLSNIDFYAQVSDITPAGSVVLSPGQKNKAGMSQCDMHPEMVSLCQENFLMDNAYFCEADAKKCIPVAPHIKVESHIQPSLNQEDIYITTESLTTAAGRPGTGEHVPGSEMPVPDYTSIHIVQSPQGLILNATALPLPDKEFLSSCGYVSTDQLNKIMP
“PEG-rhGH isomer P1 (PEGylated recombinant human growth hormone, modified at the N-terminus) (from UniProt P01241 27-217) (ligand)” gave a bioactivity relative to the PEG-rhGH reference, reporter gene assay (luciferase, HepG2/IGF-1 cells) of 71.1%. With “PEG-rhGH isomer P2 (PEGylated recombinant human growth hormone, modified at K140) (from UniProt P01241 27-217) (ligand)” the bioactivity relative to the PEG-rhGH reference, reporter gene assay (luciferase, HepG2/IGF-1 cells) was 163%. “PEG-rhGH isomer P3 (PEGylated recombinant human growth hormone, modified at K145) (from UniProt P01241 27-217) (ligand)” was tested, and the bioactivity relative to the PEG-rhGH reference, reporter gene assay (luciferase, HepG2/IGF-1 cells) was 143%. With “PEG-rhGH isomer P4 (PEGylated recombinant human growth hormone, modified at K38) (from UniProt P01241 27-217) (ligand)” the bioactivity relative to the PEG-rhGH reference, reporter gene assay (luciferase, HepG2/IGF-1 cells) was 29%. Work on “PEG-rhGH isomer P5 (PEGylated recombinant human growth hormone, modified at K158) (from UniProt P01241 27-217) (ligand)” yielded a bioactivity relative to the PEG-rhGH reference, reporter gene assay (luciferase, HepG2/IGF-1 cells) of 107%.
